# Experimental data: publication PMC12881857, “The MabZIP5–MaMYB69 module cooperates with MaERF55 to modulate banana fruit ripening via cell wall degradation”
# T1: GST-MaMYB69 (banana, UniProt A0A804IQI7 1-348)
# T1 sequence: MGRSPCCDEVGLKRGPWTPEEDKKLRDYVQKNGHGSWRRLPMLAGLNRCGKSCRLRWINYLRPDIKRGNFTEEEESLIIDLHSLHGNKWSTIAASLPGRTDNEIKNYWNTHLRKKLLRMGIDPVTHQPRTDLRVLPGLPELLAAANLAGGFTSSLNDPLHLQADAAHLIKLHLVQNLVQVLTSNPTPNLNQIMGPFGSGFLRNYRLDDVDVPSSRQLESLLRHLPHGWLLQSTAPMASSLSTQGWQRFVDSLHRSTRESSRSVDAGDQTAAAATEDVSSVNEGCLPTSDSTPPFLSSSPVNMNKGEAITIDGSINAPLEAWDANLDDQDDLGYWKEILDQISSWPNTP
# B1: MaACO1 promoter probe (dsDNA)
# DNA 1: ATTGCTTTCTTGTGGCCACCAACCGGAGAAAGGGAGTCTA
# DNA 2: TAGACTCCCTTTCTCCGGTTGGTGGCCACAAGAAAGCAAT
# B2: MaMYB69 mutant probe (dsDNA)
# DNA 1: AGGTGCCATGCCGCACTTTTTTAAAAAATCTGCCCTTTTG
# DNA 2: CAAAAGGGCAGATTTTTTAAAAAAGTGCGGCATGGCACCT
# B3: MaPG3 mutant probe (dsDNA)
# DNA 1: AGGCATCCAACAACTTTCTCCTTTTTTCTTGCTTGCATAC
# DNA 2: GTATGCAAGCAAGAAAAAAGGAGAAAGTTGTTGGATGCCT
# B4: MaGAL promoter probe (dsDNA)
# DNA 1: GTAGGGAGACCAAATTGCTTGTGTGTGTTTGGTAGATAAA
# DNA 2: TTTATCTACCAAACACACACAAGCAATTTGGTCTCCCTAC
# B5: MaPE promoter probe (dsDNA)
# DNA 1: GTGTCGATGGTGAAGTGTTTGGAGAAGTAGGAGCGGCAGC
# DNA 2: GCTGCCGCTCCTACTTCTCCAAACACTTCACCATCGACAC
# B6: MaPE mutant probe (dsDNA)
# DNA 1: GTGTCAAAAAAGAAGTGTTTGGAGAAGTAGGAGCGGCAGC
# DNA 2: GCTGCCGCTCCTACTTCTCCAAACACTTCTTTTTTGACAC
# B7: MaPG3 promoter probe (dsDNA)
# DNA 1: AGGCATCCAACAACTTTCTCCACCAACCTTGCTTGCATAC
# DNA 2: GTATGCAAGCAAGGTTGGTGGAGAAAGTTGTTGGATGCCT
# B8: MaMYB69 promoter probe (dsDNA)
# DNA 1: AGGTGCCATGCCGCACACCTAAACCTCTTCTGCCCTTTTG
# DNA 2: CAAAAGGGCAGAAGAGGTTTAGGTGTGCGGCATGGCACCT
# B9: MaPL1 promoter probe (dsDNA)
# DNA 1: TCCTGCATCTTGGACGAGTTTGGTGTACCCAAAGAGGACG
# DNA 2: CGTCCTCTTTGGGTACACCAAACTCGTCCAAGATGCAGGA
# B10: MaPL1 mutant probe (dsDNA)
# DNA 1: TCCTGCATCTTGGACGAGAAAAAAGTACCCAAAGAGGACG
# DNA 2: CGTCCTCTTTGGGTACTTTTTTCTCGTCCAAGATGCAGGA
# B11: MaGAL mutant probe (dsDNA)
# DNA 1: GTAGGGAGTTTTTTTTGCTTGTGTGTGAAAAAAAGATAAA
# DNA 2: TTTATCTTTTTTTCACACACAAGCAAAAAAAACTCCCTAC
# How the values were obtained:
# GST-MaMYB69 [1] = biological target: T1, GST-MaMYB69; test: EMSA; Chemiluminescent EMSA Kit (Beyotime); buffer, salt, pH and temperature not stated; conditions: protein: recombinant, tags: GST (N-term, pGEX-4T-1), blunt
# GST-MaMYB69 [2] = biological target: T1, GST-MaMYB69; test: competition; 50-fold excess mutant competitor vs N9; Chemiluminescent EMSA Kit (Beyotime); buffer, salt, pH and temperature not stated; conditions: protein: recombinant; tags: GST (N-term, pGEX-4T-1); blunt
# GST-MaMYB69 [3] = biological target: T1, GST-MaMYB69; test: competition; 50-fold excess mutant competitor vs N7; Chemiluminescent EMSA Kit (Beyotime); buffer, salt, pH and temperature not stated; conditions: protein: recombinant; tags: GST (N-term, pGEX-4T-1); blunt
# GST-MaMYB69 [4] = biological target: T1, GST-MaMYB69; test: competition; 50-fold excess mutant competitor vs N1; Chemiluminescent EMSA Kit (Beyotime); buffer, salt, pH and temperature not stated; conditions: protein: recombinant; tags: GST (N-term, pGEX-4T-1); blunt
# GST-MaMYB69 [5] = biological target: T1, GST-MaMYB69; test: competition; 50-fold excess mutant competitor vs N3; Chemiluminescent EMSA Kit (Beyotime); buffer, salt, pH and temperature not stated; conditions: protein: recombinant; tags: GST (N-term, pGEX-4T-1); blunt
# GST-MaMYB69 [6] = biological target: T1, GST-MaMYB69; test: competition; 50-fold excess mutant competitor vs N5; Chemiluminescent EMSA Kit (Beyotime); buffer, salt, pH and temperature not stated; conditions: protein: recombinant; tags: GST (N-term, pGEX-4T-1); blunt
binder,measurement,setting,value
B1,binding result,GST-MaMYB69 [1],binds
B2,binding result,GST-MaMYB69 [2],no binding
B3,binding result,GST-MaMYB69 [3],no binding
B4,binding result,GST-MaMYB69 [1]; label: biotin,binds
B5,binding result,GST-MaMYB69 [1]; label: biotin,binds
B6,binding result,GST-MaMYB69 [4],no binding
B7,binding result,GST-MaMYB69 [1]; label: biotin,binds
B8,binding result,GST-MaMYB69 [1]; label: biotin,binds
B9,binding result,GST-MaMYB69 [1]; label: biotin,binds
B10,binding result,GST-MaMYB69 [5],no binding
B11,binding result,GST-MaMYB69 [6],no binding
